Results published in EP4663199A1 (Strike Pharma AB, dated 2025).

Tests used:
[1] = target: peptide SEQ ID NO:234 (tag moiety …, AAY spacers, cargo peptide)
[2] = target: peptide SEQ ID NO:236 (tag moiety …, GGS spacers, cargo peptide)
[3] = target: peptide SEQ ID NO:228 (tag moiety …, AAY spacers, cargo peptide)
[4] = target: peptide SEQ ID NO:237 (tag moiety …, GGS spacer, cargo peptide)
[5] = target: peptide SEQ ID NO:243 (tag moiety …, GGS spacer, cargo peptide)
[6] = target: peptide SEQ ID NO:235 (tag moiety […], AAA spacers, cargo peptide)
[7] = target: peptide SEQ ID NO:230 (tag moiety …, GGS spacers, cargo peptide)
[8] = target: peptide SEQ ID NO:240 (tag moiety …, no spacer, cargo peptide)

B1: bispecific binding molecule comprising a first specific binding molecule (comprising SEQ ID NO:265 a (bispecific antibody)
VH: EVQLLESGGGLVQPGGSLRLSCAASGFTFSSYAMSWVRQAPGKGLEWVSGISGYSGSTYYADSVKGRFTISRDNSKNTLYLQMNSLRAEDTAVYYCARYYSYYGYYYFDYWGQGTLVTVSS
VL: DIQMTQSPSSLSASVGDRVTITCRASQSISSYLNWYQQKPGKAPKLLIYAASSLQSGVPSRFSGSGSGTDFTLTISSLQPEDFATYYCQQGYPYPFTFGQGTKLEIK
scFv: QVQLVQSGAEVKKPGASVKVSCKASGFNIKDFNIHWVRQAPGQGLEWIGRIDPESGDAEYVPKFQGRVTMTRDTSTSTVYMELSSLRSEDTAVYYCTTGSYDLDVEYWGQGTLVTVSSGGGGSGGGGSGGGGSGGGGSDIQMTQSPSSLSASVGDRVTITCHASQNINVWLSWYQQKPGKAPKLLIYKASTLHTGVPSRFSGSGSGTDFTLTISSLQPEDFATYYCQQGQSYPLTFGQGTKLEIK
Kd [1]: 0.017 nM | Kd [2]: 0.012 nM | Kd [3]: 0.0078 nM | Kd (peptide): 0.012 nM | Kd [4]: 0.076 nM | Kd [5]: 0.0027 nM | Kd [6]: 0.011 nM | Kd [7]: 0.016 nM | Kd [8]: 0.0055 nM
